Substitutions are numbered along the chain they refer to.
T1: mouse FcγRII (mouse, UniProt P08101 30-210)
T1 construct: also called mFcγRII; mFcgRII
T1 sequence: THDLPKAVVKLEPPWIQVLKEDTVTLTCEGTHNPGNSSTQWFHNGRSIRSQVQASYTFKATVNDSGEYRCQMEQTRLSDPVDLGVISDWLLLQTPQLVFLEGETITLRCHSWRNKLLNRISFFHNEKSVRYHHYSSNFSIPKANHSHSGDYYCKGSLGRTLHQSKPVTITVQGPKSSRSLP

T2: mouse FcγRIII (mouse, UniProt P08508 31-215)
T2 construct: also called mFcγRIII; mFcgRIII
T2 chain: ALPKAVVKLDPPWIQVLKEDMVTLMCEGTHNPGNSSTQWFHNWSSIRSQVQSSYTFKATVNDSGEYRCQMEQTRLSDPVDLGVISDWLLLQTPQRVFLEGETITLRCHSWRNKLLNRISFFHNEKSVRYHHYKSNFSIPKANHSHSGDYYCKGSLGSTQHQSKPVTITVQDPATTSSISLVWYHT

T3: mouse FcγRII (mouse, UniProt P08101 30-210)
T3 construct: Extracellular domain with C-terminal His tag; also called mFcγRII; mFcgRII
T3 sequence: T1 sequence

T4: mouse FcγRIII (mouse, UniProt P08508 31-215)
T4 construct: Extracellular domain with C-terminal His tag; also called mFcγRIII; mFcgRIII
T4 chain: T2 chain

B1: H237-MB638/MRAL-k0 (antibody, mouse IgG1, kappa)
heavy: QVQLQESGPGLVKPSETLSLTCAVSGHSISHDHAWSWVRQPPGEGLEWIGFISYSGITNYNPSLQGRVTISRDNSKNTLYLQMNSLRAEDTAVYYCARSLARTTAMDYWGEGTLVTVSSAKTTPPSVYPLAPGSAAQTNSMVTLGCLVKGYFPEPVTVTWNSGSLSSGVHTFPAVLQSDLYTLSSSVTVPSSTWPSETVTCNVAHPASSTKVDKKIVPRDCGCKPCICIPAEVENVFIFPPKPKDVLTITLTPKVTCVVVDISKDDPEVQFSWFVDDVEVHTAQTQPREEQFNSTFRSVSELPIMHQDWLNGKEFKCRVNSAAFPAPIEKTISKTKGRPKAPQVYTIPPPKEQMAKDKVSLTCMITDFFPEDITVEWQWNGQPAENYKNTQPIMDTDGSYFVYSKLNVQKSNWEAGNTFTCSVLHEGLHNHHTEKSLSHSPGK
light: not shown
notes: mouse IgG1 CH variant; copies: 2 + 2
B2: H237-MB692/MRAL-k0 (antibody, mouse IgG1, kappa)
heavy: B1 heavy with I229E, A231P, N235Y
light: not shown
notes: as for B1
B3: MB859 (antibody, mouse IgG1, kappa)
heavy: B1 heavy with I229E, A231N, N235L, A322D, A323G, P327Y, K330R
light: not shown
notes: CH name; VH H237 + CH, L chain MRAL-k0; copies: 2 + 2
B4: H237-MB611/MRAL-k0 (antibody, mouse IgG1, kappa)
heavy: B1 heavy with I229T, P230V, A231P, V233E, E234D, N235E
light: not shown
notes: as for B1
B5: MB861 (antibody, mouse IgG1, kappa)
heavy: B1 heavy with I229E, A231N, N235L, K264D, N320D, A322D, A323G
light: not shown
notes: as for B3
B6: H237-MB690/MRAL-k0 (antibody, mouse IgG1, kappa)
heavy: B1 heavy with I229T, N235Y
light: not shown
notes: as for B1
B7: MB865 (antibody, mouse IgG1, kappa)
heavy: B1 heavy with I229E, A231N, N235L, K264D, Q291L, A322D, A323G
light: not shown
notes: as for B3
B8: MB864 (antibody, mouse IgG1, kappa)
heavy: B1 heavy with I229E, A231N, N235L, K264D, A322D, A323G, K330R
light: not shown
notes: as for B3
B9: H237-MB643/MRAL-k0 (antibody, mouse IgG1, kappa)
heavy: B1 heavy with I229E, P230N, A231Y, N235Y
light: not shown
notes: as for B1
B10: H237-MB626/MRAL-k0 (antibody, mouse IgG1, kappa)
heavy: B1 heavy with I229E, P230T, A231Y, N235L
light: not shown
notes: as for B1
B11: H237-MB641/MRAL-k0 (antibody, mouse IgG1, kappa)
heavy: B1 heavy with I229E, P230A, A231Y, N235Y
light: not shown
notes: as for B1
B12: H237-MB687/MRAL-k0 (antibody, mouse IgG1, kappa)
heavy: B1 heavy with I229E, A231P, N235L
light: not shown
notes: as for B1
B13: MB856 (antibody, mouse IgG1, kappa)
heavy: B1 heavy with I229E, A231N, N235L, N320D, A322D, A323G, P327Y
light: not shown
notes: as for B3

Experiments:
mouse FcγRII [1] = target: T1, mouse FcγRII; test: SPR (Biacore), antibody captured on Protein L, mFcγR as analyte
Experimental: (§1) Each altered antibody was analyzed for its interaction with each Fcγ receptor prepared above using Biacore T100 (GE Healthcare Japan Corp.), Biacore T200 (GE Healthcare Japan Corp.), Biacore A100, or Biacore 4000. The running buffer used was HBS-EP+ (GE Healthcare Japan Corp.). The assay temperature was set to 25° C. The sensor chips used were chips prepared by immobilizing Protein L (ACTIGEN or BioVision) onto Series S Sensor Chip CM5 (GE Healthcare Japan Corp.) or Series S Sensor Chip CM4 (GE Healthcare Japan Corp.) by the amine coupling method.
(§2) In order to calculate the KD value of each altered antibody for FcγR, kinetic analysis was conducted according to the following method: first, the antibody of interest was captured onto any of these chips and allowed to interact with mFcγR diluted with a running buffer. For the obtained sensorgram, the assay results were globally fit into the 1:1 Langmuir binding model using Biacore Evaluation Software to calculate an association rate constant ka (L/mol/s) and a dissociation rate constant kd (1/s). From these values, the dissociation constant KD (mol/L) was calculated.

mouse FcγRIII [2] = target: T2, mouse FcγRIII; test: as above
Experimental: as §1, §2

mouse FcγRII [3] = target: T3, mouse FcγRII; test: SPR (Biacore T200); KD of H237-MB630/MRAL-k0 / KD of variant
mouse FcγRIII [4] = target: T4, mouse FcγRIII; test: as above
mouse FcγRII [5] = target: T3, mouse FcγRII; test: SPR (Biacore T200); KD of H237-mIgG1/MRAL-k0 / KD of variant
mouse FcγRIII [6] = target: T4, mouse FcγRIII; test: as above

Binder	Kd (mouse FcγRII [1])	relative mFcγRII-binding activity (mIgG1 = 1) (mouse FcγRII [1])	Kd (mouse FcγRIII [2])	relative mFcγRIII-binding activity (mIgG1 = 1) (mouse FcγRIII [2])	Relative mFcγRII-binding activity (MB630 = 1) (mouse FcγRII [3])	Relative mFcγRIII-binding activity (MB630 = 1) (mouse FcγRIII [4])	relative mFcγRII-binding activity (mIgG1 = 1) (mouse FcγRII [5])	relative mFcγRIII-binding activity (mIgG1 = 1) (mouse FcγRIII [6])
B1	280 nM	0.83 fold	3380 nM	0.1 fold				
B2	186 nM	1.75 fold	4440 nM	0.12 fold				
B3					3.22 fold	3.9 fold	34.2 fold	0.71 fold
B4	192 nM	1.11 fold	3420 nM	0.09 fold				
B5					7.25 fold	13.2 fold	76.8 fold	2.41 fold
B6	204 nM	1.6 fold	2710 nM	0.19 fold				
B7					7.91 fold	18.3 fold	83.8 fold	3.34 fold
B8					10.4 fold	19.9 fold	110 fold	3.63 fold
B9	126 nM	1.83 fold	2000 nM	0.16 fold				
B10	261 nM	0.89 fold	2370 nM	0.14 fold				
B11	143 nM	1.62 fold	2100 nM	0.15 fold				
B12	345 nM	0.94 fold	5320 nM	0.1 fold				
B13					4.23 fold	4.95 fold	44.8 fold	0.91 fold
